The text below walks through data of patent US20100203041A1 (Genentech, published 2010).

For orientation: Kd means the concentration at which binding is half-saturated.

T1: recombinant mouse EGFL7 (mouse, UniProt Q9QXT5 22-275, limits assumed)
T1 construct: also called mEGFL7; poly-His-tagged EGFL7
T1 sequence (looked up): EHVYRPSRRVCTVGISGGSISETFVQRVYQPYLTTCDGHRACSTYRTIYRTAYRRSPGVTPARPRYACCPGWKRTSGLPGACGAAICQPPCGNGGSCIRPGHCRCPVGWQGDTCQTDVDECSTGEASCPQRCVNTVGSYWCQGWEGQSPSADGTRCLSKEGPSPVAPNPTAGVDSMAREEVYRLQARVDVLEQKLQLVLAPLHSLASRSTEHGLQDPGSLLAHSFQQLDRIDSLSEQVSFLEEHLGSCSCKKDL

T2: recombinant human EGFL7 (human, UniProt Q9UHF1 24-273, limits assumed)
T2 construct: Produced in E. coli and His6/poly-His-tagged; also called hEGFL7; poly-His-tagged EGFL7
T2 sequence (looked up): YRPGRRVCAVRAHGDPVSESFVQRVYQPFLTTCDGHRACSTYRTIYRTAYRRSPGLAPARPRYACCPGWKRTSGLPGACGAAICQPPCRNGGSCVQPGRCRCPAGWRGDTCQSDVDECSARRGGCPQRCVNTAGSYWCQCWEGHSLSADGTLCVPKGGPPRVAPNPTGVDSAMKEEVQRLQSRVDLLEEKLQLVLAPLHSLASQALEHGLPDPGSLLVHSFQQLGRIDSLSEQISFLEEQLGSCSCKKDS

B1: anti-EGFL7 mumab 4F11.1.8 (antibody, IgG2b, V domains shown)
VH: QIQLVQSGPELKKPGETVKISCKASGHTFTTYGMSWVKQAPGKGLKWMGWINTHSGVPTYADDFKGRFAFSLETSASTAHLQINNLKNEDTATYFCARLGSSAVDYWGQGTTVTVSS
VL: DIVLTQSPASLAVSLGQRATISCKASQSVDYDGDSYMSWYQQKPGQPPKLLIYGASNLESGIPARFSGSGSGTDFTLNIHPVEEEDAATYYCQQNNEDPYTFGGGTKVEIKR
notes: ATCC PTA-7343
B2: polypeptide p2 (peptide)
peptide: RPRYACCPGWKRT

One assay concerns the target T1, recombinant mouse EGFL7. The experiment in a line: SPR, BIAcore 3000, room temperature; antibody on CM5 chip, poly-His-tagged EGFL7 injected; 1:1 global fit; Mab stock in 50 mM Tris/125 mM NaCl. As for the experimental part: (§1) Binding affinity of the Mabs for both human and mouse EGFL7 was determined by surface plasmon resonance using Pharmacia BIAcore® 3000 (BIAcore AB, Uppsala, Sweden) at room temperature (see, e.g., Morton et al., Meth. Enzymol. 295:268-94 (1998)). Anti-EGFL7 antibodies were immobilized to the sensor chip (CM5) through primary amine groups. The carboxymethylated sensor chip surface matrix was activated by injecting 20 μl of a mixture of 0.025 M N-hydroxysuccinimide and 0.1 M N-ethyl-N′(dimethylaminopropyl) carbodiimide at 5 μl/min 5-10 μl of 10 μg/ml solution of […] in 10 mM sodium acetate, pH 4.5, were injected at 5 μl/min After coupling, unoccupied sites on the chip were blocked by injecting 20 μl of 1M ethanolamine, pH 8.5. The running buffer was PBS containing 0.05% polysorbate 20. For kinetic measurements, two-fold serial dilutions of poly-His-tagged EGFL7 in running buffer were injected over the flow cells for 3 minutes at a flow rate of 30 μl/min and the bound polyhis tagged EGFL7 was allow to dissociate for 20 minutes. The binding surface was regenerated by injecting 20 μl of 10 mM glycine.HCl (pH 1.5). […] There was no significant non-specific binding of poly-His-tagged EGFL7 to flow cell one. For calculating apparent binding affinity, data were analyzed using a 1:1 binding model using global fitting. […]
(In SPR one partner is held on a chip, and binding of the other changes the refractive index at the surface.)

In the next assay the target is T2, recombinant human EGFL7. The description is as above. As for the experimental part:
as §1

Assay [1] concerns the target B1. The experiment in a line: peptide competition at 10-fold molar excess with EGFL7 protein; immunoprecipitation and SDS-PAGE.

On to B1, for which the Kd with recombinant mouse EGFL7 amounted to 0.756 nM; with recombinant human EGFL7, 0.473 nM.

Take B2: the binding result in assay [1] is “binds”.
